Assay results: paper PMC5286830, “Prokaryotic ubiquitin-like protein remains intrinsically disordered when covalently attached to proteasomal target proteins” (BMC Structural Biology, 2017)

Target: T1, Pup ligase CgluPafA-His6 (proteasome accessory factor A from Corynebacterium glutamicum) (Corynebacterium glutamicum, UniProt Q8NQE1 1-482)
T1 construct: Pup ligase PafA, Corynebacterium glutamicum; The anisotropy methods call the titrated protein only 'CgluPafA'
T1 sequence (looked up): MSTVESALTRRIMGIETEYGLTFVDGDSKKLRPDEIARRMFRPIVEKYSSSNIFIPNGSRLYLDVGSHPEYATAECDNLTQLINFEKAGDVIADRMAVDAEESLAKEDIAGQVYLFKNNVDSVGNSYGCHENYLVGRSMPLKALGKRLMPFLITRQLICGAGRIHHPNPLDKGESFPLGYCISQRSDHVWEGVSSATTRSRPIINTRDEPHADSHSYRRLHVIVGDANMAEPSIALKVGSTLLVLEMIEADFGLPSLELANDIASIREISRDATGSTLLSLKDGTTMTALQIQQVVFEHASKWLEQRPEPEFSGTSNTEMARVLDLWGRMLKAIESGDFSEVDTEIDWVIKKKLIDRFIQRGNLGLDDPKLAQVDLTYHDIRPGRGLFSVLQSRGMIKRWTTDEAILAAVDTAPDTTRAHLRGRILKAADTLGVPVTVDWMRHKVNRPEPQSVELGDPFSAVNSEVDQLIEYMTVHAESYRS
Assay: fluorescence polarisation; fluorescence anisotropy on a Synergy BioTek plate reader; 12.5 nM CgluPup-Q30C-Fluorescein labeled substrate or free CgluPup with 0 to 30 uM CgluPafA; 50 mM Tris pH 8.04 (RT), 150 mM NaCl, 0.5 mM EDTA, 0.001% Tween-20
Details: both partners purified

B1: fluorescein-labeled CgluPup-Q30C variant (free) (natural protein, Corynebacterium glutamicum, UniProt Q8NQE0 1-64, looked up)
chain: MNAKQTQIMGGGGRDEDNAEDSAQASGQVC(fluorescein‑5‑maleimide)INTEGVDSLLDEIDGLLENNAEEFVRSYVQKGGE
notes: prokaryotic ubiquitin-like protein Pup, Corynebacterium glutamicum; also called CgluPup-Q30C-Fluorescein; free CgluPup-Q30C
- Kd: 1820 ± 180 nM
